Test results: the supplement of paper PMC9170038

system: MS2 coat protein; assay: apparent KD of MS2 coat protein; higher = weaker reporter binding; details: Eterna round: R107; input ligand: arginine 13.2 mM
Experimental: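 RNA-MaP round R107: designed RNA switches with theophylline, tryptophan, arginine or FMN aptamers are transcribed on-chip within common flanks. They are titrated with SNAP-549-labelled MS2 coat protein in RNA-MaP buffer (100 mM Tris pH 7.5, 80 mM KCl, 4 mM MgCl2), without ligand or with the indicated ligand. Median apparent KD per design.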

Sequence	apparent KD of MS2 coat protein [nM]
AGGUACGAAAACGUGGGUGAGUCGUACCAACGAGGACCGGUACGGCCGCCACUCGAAUAAACAUGAGGAUCACCCAUGUAAUAAU [T''-M-T'-T-MS2 - Design 6]	25
AAUGUCGGAUCGGCCGCCACUGGUUGGCCCUGUGUACAUGAGGAUCACCCAUGUCCAUCCCAAACCAGGACCGGGAUCUUUAUGU [Xeananor]	37.9
GAGCGCGUGGACUGGCGUGCUCCGCUCCGUCGAGGACCGGUACGGCCGCCACUCGACAUGAGGAUCACCCAUGUGUGCGCUCGCG [#1 Exclusion - Tryptophan A Attempt #19 (HarryS)]	32.9
AGCUCGCGAAAGCGAGCAACAUGAUCCGAAGGAGCGCGCGAAAGCGCAGGUAGGUCGCGGACAUGAGGAUCACCCAUGUCUCCUU [MAT - Exclusion Arginine A - Mod of Eli - D14]	41
CCUCGUGCAACAUGAGGAUCACCCAUGUACCGAGGACCGGUACGGCCGCCACUCGAAAACGAGUACCAUUAGCGAAAGCUGAUGG [Trp A SS mod1]	11.9
GCCGCCGGUGCUUCAUUCCCUGAGCGACGGCGAGGACCGGUACGGCCGCCACUCGGCUCGGUACAUGAGGAUCACCCAUGUCUUU [theeternabot_exclusion_MS2_Trp_A_11]	30.7
AGUGUUAUAACUGAUACCAGACCUUUGCUUAUACAUGAGGAUCACCCAUGUAAAAUGGCUGUCCCUUGGCAGCAGAGAAUACACA [#07 Same State - Theophylline B]	42.9
UGUAUGUGAUCUGAUACCAGAGAUGAUAACCUGAGGAUCACCCUGGUAAGGCGAAAGCCACUCCCUUGGCAGCAGAUCGCAUACU	48.3
UCGUGUAUAUCGGAUACCAGUGAAAUCGAUACAUGAGGAUCACCCAUGUGAGAGGAUGUACACCCUUGGCAGCUGUAUAUAUCUG [ll,lmullin]	18
AGCGAGAUCCGUGAUACCAGCUACAUGAGGAUCACCCAUGUGAGCGCGAAAGUGCUGUGUAGCCCUUGGCAGCACAGUGGAUCUC [#29 Exclusion-TheophyllineB]	8.84
AGUUUAGACACGGCCGCCACUCGUGACAGAUUUCGCAGUGGUCAACAUGAGGAUCACCCAUGUCUGAGGACCGGGUGUUGAGUUU [XTryp B #7]	45.2
ACAAGAGGGAUGGAUACCAGCGACAUGAGGAUCACCCAUGUAUGAGGAUCAGCCAUGUUAUGCCCUUGGCAGCCACGAAGAUCAG [XXXMULLIN]	27.1
UACAUGAGGAUCACCCAUGUAUGAAUGGAUACCAGAUAAAAUAAGGUCCCUUGGCAGCUAGUGAAUCGAGGGUGGGUAUCAUGUU [#14 Exclusion-TheophyllineA]	10.9
AGAGUCUAGUCGGCCGCCACUCAUGUCCAAAGGACAUGAGGAUCACCCAUGUACCAAUGGUACAUGAGGACCGGGACUGGACUCA [Omei Tryp B SS C v2]	227
UCAUUUUUCACGGCCGCCACUUCAAGGUCCUGAGGCUGGGCAACACAUGAGGAUCACCCAUGUCGAAGGACCGGGUGAAGCUACC [theeternabot_sameState_MS2_Trp_B_34]	152
UGUAUGUGAUCUGAUACCAGCUAAUAAGCUUGAGGAUCACCCAAGUGGAGCGGAAACGCAGGCCCUUGGCAGCAGAUCGCAUACU [Denovo 9 #StaticStem #AlternativeMS2]	54.6
AGCAACUAGUCGGCCGCCACUCAUAUUACAUGAGGAUCACCCAUGUAUACAUGGUUGUUAUAUUUGAGGACCGGGACAGUUGCAU [JR_SSTryptoB_Sub018]	59
UAAGCGCGAGGAGACGGAACCAAUCUUGUUCGAGGACCGGUACGGCCGCCACUCGGCGUAAAACAUGAGGAUCACCCAUGUGCAA [theeternabot_exclusion_MS2_Trp_A_18]	10.8
GUAAUUUAUUGAAGGAGCGUCGAAAAUGGGUAAACAUGAGGAUCACCCAUGUAAAGGGAACGACAGGUAGGUCGCAAUAGGUUAC [AstromonsSSArgB#29]	103
ACAUGAGGAUCACCCAUGUUCAUGCGGGAAGGAGCGUGCGGAAGCACAGGUAGGUCGCCCUCAAUAUCUAACGUUACGUUCAUGA [#26 Same State - Arginine A]	13.7
GUCGGAGUCUGAAGGAGCGACAUGAGGAUCACCCAUGUCUCCCGUUAUGGGAGUUCCUUAGGUCAGGUAGGUCGCAGACUCCGAC [#1 Exclusion - Arginine B Attempt #25 (Inspired by Omei)]	78.1
UUGUGGCGCUCGGCCGCCACUCCGACAUGAGGAUCACCCAUGUUCUACAUGAGGAUCACCCAUGUGAGGACCGGGAGACACUUCC [Exclusion Tryptophan B GF13]	53
GAGCUGAUGUAGGCCGGAUAUCCGGGAGAUACCAGUACAGAAAUGUACCCUUGGCAGCUCUUUCUUACAUGAGGAUCACCCAUGU [Ex Theophylline A 27]	11.5
UGUAUGUGAUCUGAUACCAGUCCAACUGGUAAAGCACGAGGAUCACCCGUGUAAAAUUGGGACCCUUGGCAGCAGAUCGCAUACU	96.8
GGAUGGAACUCGGCCGCCACUGGUGAUCCUAAUGUACAUGAGGAUCACCCAUGUACAUGAGAAGAUAGGACCGGGAGAUAAGGGA [Tryptophan B V4 (+4G)]	19.9
AGCUCUGAUACGGCCGCCACUAGAUGGUGUUGUAAGAGACGCCUACAUGAGGAUCACCCAUGUCAUAGGACCGGGUAUAAAUACA [theeternabot_sameState_MS2_Trp_B_8]	27.8
AAGAAGUUUUGAUUUUUAUGAAGUAGUGAUACCAGUUAAGAAAGAGACCCUUGGCAGCGCAACAUGAGGAUCACCCAUGUAAGAA [Another radom design]	18.9
UGGUACAUGGCGGCCGCCACUUCACGUAAAAUAAAAGCUUGAGGAUCACCCAAGUAAUAAGUUGGGAGGACCGGGUCAUGUACCU	19.2
AUAACGAGUGGUGGAUAAUCCUCAUGUAAACGAGGACCGGUACGGCCGCCACUCGAUAACAUGAGGAUCACCCAUGUAAUAAUAA [|T'-M'-Trp-Ms2|_Design17]	25.9

same assay, conditions: Eterna round: R107; input ligand: none

Sequence	apparent KD of MS2 coat protein [nM]
AGCUCGCGAAAGCGAGCAACAUGAUCCGAAGGAGCGCGCGAAAGCGCAGGUAGGUCGCGGACAUGAGGAUCACCCAUGUCUCCUU [MAT - Exclusion Arginine A - Mod of Eli - D14]	66.2
CCUCGUGCAACAUGAGGAUCACCCAUGUACCGAGGACCGGUACGGCCGCCACUCGAAAACGAGUACCAUUAGCGAAAGCUGAUGG [Trp A SS mod1]	13.1
UGUAUGUGAUCUGAUACCAGAGAUGAUAACCUGAGGAUCACCCUGGUAAGGCGAAAGCCACUCCCUUGGCAGCAGAUCGCAUACU	34.4
ACAAGAGGGAUGGAUACCAGCGACAUGAGGAUCACCCAUGUAUGAGGAUCAGCCAUGUUAUGCCCUUGGCAGCCACGAAGAUCAG [XXXMULLIN]	25.1
UGUAUGUGAUCUGAUACCAGCUAAUAAGCUUGAGGAUCACCCAAGUGGAGCGGAAACGCAGGCCCUUGGCAGCAGAUCGCAUACU [Denovo 9 #StaticStem #AlternativeMS2]	76.4
UAAGCGCGAGGAGACGGAACCAAUCUUGUUCGAGGACCGGUACGGCCGCCACUCGGCGUAAAACAUGAGGAUCACCCAUGUGCAA [theeternabot_exclusion_MS2_Trp_A_18]	13.2
GUAAUUUAUUGAAGGAGCGUCGAAAAUGGGUAAACAUGAGGAUCACCCAUGUAAAGGGAACGACAGGUAGGUCGCAAUAGGUUAC [AstromonsSSArgB#29]	192
ACAUGAGGAUCACCCAUGUUCAUGCGGGAAGGAGCGUGCGGAAGCACAGGUAGGUCGCCCUCAAUAUCUAACGUUACGUUCAUGA [#26 Same State - Arginine A]	14.3
GUCGGAGUCUGAAGGAGCGACAUGAGGAUCACCCAUGUCUCCCGUUAUGGGAGUUCCUUAGGUCAGGUAGGUCGCAGACUCCGAC [#1 Exclusion - Arginine B Attempt #25 (Inspired by Omei)]	141
GAGCUGAUGUAGGCCGGAUAUCCGGGAGAUACCAGUACAGAAAUGUACCCUUGGCAGCUCUUUCUUACAUGAGGAUCACCCAUGU [Ex Theophylline A 27]	13.1
UGUAUGUGAUCUGAUACCAGUCCAACUGGUAAAGCACGAGGAUCACCCGUGUAAAAUUGGGACCCUUGGCAGCAGAUCGCAUACU	228
GGAUGGAACUCGGCCGCCACUGGUGAUCCUAAUGUACAUGAGGAUCACCCAUGUACAUGAGAAGAUAGGACCGGGAGAUAAGGGA [Tryptophan B V4 (+4G)]	19.3
AGCUCUGAUACGGCCGCCACUAGAUGGUGUUGUAAGAGACGCCUACAUGAGGAUCACCCAUGUCAUAGGACCGGGUAUAAAUACA [theeternabot_sameState_MS2_Trp_B_8]	26.4
AAGAAGUUUUGAUUUUUAUGAAGUAGUGAUACCAGUUAAGAAAGAGACCCUUGGCAGCGCAACAUGAGGAUCACCCAUGUAAGAA [Another radom design]	17.3
UGGUACAUGGCGGCCGCCACUUCACGUAAAAUAAAAGCUUGAGGAUCACCCAAGUAAUAAGUUGGGAGGACCGGGUCAUGUACCU	19.8

same assay, conditions: Eterna round: R107; input ligand: theophylline 20 uM

Sequence	apparent KD of MS2 coat protein [nM]
AGGUACGAAAACGUGGGUGAGUCGUACCAACGAGGACCGGUACGGCCGCCACUCGAAUAAACAUGAGGAUCACCCAUGUAAUAAU [T''-M-T'-T-MS2 - Design 6]	58.3
AAUGUCGGAUCGGCCGCCACUGGUUGGCCCUGUGUACAUGAGGAUCACCCAUGUCCAUCCCAAACCAGGACCGGGAUCUUUAUGU [Xeananor]	51.7
GAGCGCGUGGACUGGCGUGCUCCGCUCCGUCGAGGACCGGUACGGCCGCCACUCGACAUGAGGAUCACCCAUGUGUGCGCUCGCG [#1 Exclusion - Tryptophan A Attempt #19 (HarryS)]	210
AGCUCGCGAAAGCGAGCAACAUGAUCCGAAGGAGCGCGCGAAAGCGCAGGUAGGUCGCGGACAUGAGGAUCACCCAUGUCUCCUU [MAT - Exclusion Arginine A - Mod of Eli - D14]	57.3
CCUCGUGCAACAUGAGGAUCACCCAUGUACCGAGGACCGGUACGGCCGCCACUCGAAAACGAGUACCAUUAGCGAAAGCUGAUGG [Trp A SS mod1]	16.4
GCCGCCGGUGCUUCAUUCCCUGAGCGACGGCGAGGACCGGUACGGCCGCCACUCGGCUCGGUACAUGAGGAUCACCCAUGUCUUU [theeternabot_exclusion_MS2_Trp_A_11]	58.4
AGUGUUAUAACUGAUACCAGACCUUUGCUUAUACAUGAGGAUCACCCAUGUAAAAUGGCUGUCCCUUGGCAGCAGAGAAUACACA [#07 Same State - Theophylline B]	45.2
UGUAUGUGAUCUGAUACCAGAGAUGAUAACCUGAGGAUCACCCUGGUAAGGCGAAAGCCACUCCCUUGGCAGCAGAUCGCAUACU	40.7
UCGUGUAUAUCGGAUACCAGUGAAAUCGAUACAUGAGGAUCACCCAUGUGAGAGGAUGUACACCCUUGGCAGCUGUAUAUAUCUG [ll,lmullin]	25.1
AGCGAGAUCCGUGAUACCAGCUACAUGAGGAUCACCCAUGUGAGCGCGAAAGUGCUGUGUAGCCCUUGGCAGCACAGUGGAUCUC [#29 Exclusion-TheophyllineB]	14.6
AGUUUAGACACGGCCGCCACUCGUGACAGAUUUCGCAGUGGUCAACAUGAGGAUCACCCAUGUCUGAGGACCGGGUGUUGAGUUU [XTryp B #7]	48.7
ACAAGAGGGAUGGAUACCAGCGACAUGAGGAUCACCCAUGUAUGAGGAUCAGCCAUGUUAUGCCCUUGGCAGCCACGAAGAUCAG [XXXMULLIN]	32.8
UACAUGAGGAUCACCCAUGUAUGAAUGGAUACCAGAUAAAAUAAGGUCCCUUGGCAGCUAGUGAAUCGAGGGUGGGUAUCAUGUU [#14 Exclusion-TheophyllineA]	13.7
AGAGUCUAGUCGGCCGCCACUCAUGUCCAAAGGACAUGAGGAUCACCCAUGUACCAAUGGUACAUGAGGACCGGGACUGGACUCA [Omei Tryp B SS C v2]	343
